Source: paper PMC9250297

Assays:
[1] = biological target: HaloTag7 C61S single mutant (UniProt P0A3G2); test: SDS-PAGE gel shift assay
[2] = biological target: HaloTag7 C262S single mutant (UniProt P0A3G2); test: SDS-PAGE gel shift assay

Substance | stoichiometry N [1] | stoichiometry N [2]
HaloTag7 C61S single mutant (from UniProt P0A3G2 1-293) (enzyme) | 2 | –
HaloTag7 C262S single mutant (from UniProt P0A3G2 1-293) (enzyme) | – | 2
